From publication PMC2408616, “Modular Organization and Combinatorial Energetics of Proline–Tyrosine Nuclear Localization Signals” (PLoS Biology, 2008)

Columns and labels:
Kap104p [1] = biological target: Kap104p (UniProt P38217); test: ITC
Kap104p [2] = biological target: T1, Kap104p (yeast (S. cerevisiae), UniProt P38217 1-918); test: ITC; 90–350 μM MBP-NLS titrated into 9–35 μM Kap104p in the cell; 20 °C; 20 mM Tris pH 7.5, 100 mM NaCl, 2 mM β-mercaptoethanol, 10% glycerol; 35 injections of 8 μl; single-site model; conditions: both partners purified
T1 construct: Kap104p, yeast homolog of Kapβ2; gene a gift from J. Aitchison, subcloned into pGEX-Tev; also called yeast Karyopherin β2 homolog; source: E. coli Rosetta(DE3)pLysS, purified (glutathione sepharose, TEV cleavage, anion exchange, gel filtration)
T1 sequence (looked up): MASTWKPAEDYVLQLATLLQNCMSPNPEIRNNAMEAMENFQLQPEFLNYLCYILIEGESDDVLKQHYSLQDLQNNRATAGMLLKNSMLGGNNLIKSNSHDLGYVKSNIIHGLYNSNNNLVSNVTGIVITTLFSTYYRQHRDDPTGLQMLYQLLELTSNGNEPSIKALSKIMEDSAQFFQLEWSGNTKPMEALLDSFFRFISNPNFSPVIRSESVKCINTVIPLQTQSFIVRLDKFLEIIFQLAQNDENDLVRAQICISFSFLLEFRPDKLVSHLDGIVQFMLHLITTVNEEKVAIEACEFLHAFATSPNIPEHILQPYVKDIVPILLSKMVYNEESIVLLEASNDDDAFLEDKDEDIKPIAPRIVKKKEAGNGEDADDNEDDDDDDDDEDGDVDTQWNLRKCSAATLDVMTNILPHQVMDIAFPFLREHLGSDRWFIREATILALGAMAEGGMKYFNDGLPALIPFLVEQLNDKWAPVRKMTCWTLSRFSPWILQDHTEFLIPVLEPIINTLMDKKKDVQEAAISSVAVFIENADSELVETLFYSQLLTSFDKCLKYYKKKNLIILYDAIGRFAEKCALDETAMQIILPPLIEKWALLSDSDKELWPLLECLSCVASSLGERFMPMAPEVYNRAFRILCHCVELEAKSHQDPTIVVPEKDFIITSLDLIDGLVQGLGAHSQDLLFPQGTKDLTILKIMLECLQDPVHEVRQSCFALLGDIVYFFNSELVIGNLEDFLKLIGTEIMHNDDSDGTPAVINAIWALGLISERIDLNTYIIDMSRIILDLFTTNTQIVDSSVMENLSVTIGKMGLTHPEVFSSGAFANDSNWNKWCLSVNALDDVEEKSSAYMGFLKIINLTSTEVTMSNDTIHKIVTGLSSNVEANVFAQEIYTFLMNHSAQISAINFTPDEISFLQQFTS

Kap104p, P38217 [3] = biological target: T2, Kap104p, P38217; test: ITC; set-up: other: TΔS: unit not given here; conditions: for Kd / other: TΔS / dG / other: ΔH: chain shown with the change;; for Kd: parent: 37 ± 20; for ddG / ratio to parent: chain shown with the change; for other: TΔS: parent: -1.3 ± 0.6; for dG: parent: -10.0 ± 0.3; for other: ΔH: parent: -11.3 ± 0.5
T2 chain: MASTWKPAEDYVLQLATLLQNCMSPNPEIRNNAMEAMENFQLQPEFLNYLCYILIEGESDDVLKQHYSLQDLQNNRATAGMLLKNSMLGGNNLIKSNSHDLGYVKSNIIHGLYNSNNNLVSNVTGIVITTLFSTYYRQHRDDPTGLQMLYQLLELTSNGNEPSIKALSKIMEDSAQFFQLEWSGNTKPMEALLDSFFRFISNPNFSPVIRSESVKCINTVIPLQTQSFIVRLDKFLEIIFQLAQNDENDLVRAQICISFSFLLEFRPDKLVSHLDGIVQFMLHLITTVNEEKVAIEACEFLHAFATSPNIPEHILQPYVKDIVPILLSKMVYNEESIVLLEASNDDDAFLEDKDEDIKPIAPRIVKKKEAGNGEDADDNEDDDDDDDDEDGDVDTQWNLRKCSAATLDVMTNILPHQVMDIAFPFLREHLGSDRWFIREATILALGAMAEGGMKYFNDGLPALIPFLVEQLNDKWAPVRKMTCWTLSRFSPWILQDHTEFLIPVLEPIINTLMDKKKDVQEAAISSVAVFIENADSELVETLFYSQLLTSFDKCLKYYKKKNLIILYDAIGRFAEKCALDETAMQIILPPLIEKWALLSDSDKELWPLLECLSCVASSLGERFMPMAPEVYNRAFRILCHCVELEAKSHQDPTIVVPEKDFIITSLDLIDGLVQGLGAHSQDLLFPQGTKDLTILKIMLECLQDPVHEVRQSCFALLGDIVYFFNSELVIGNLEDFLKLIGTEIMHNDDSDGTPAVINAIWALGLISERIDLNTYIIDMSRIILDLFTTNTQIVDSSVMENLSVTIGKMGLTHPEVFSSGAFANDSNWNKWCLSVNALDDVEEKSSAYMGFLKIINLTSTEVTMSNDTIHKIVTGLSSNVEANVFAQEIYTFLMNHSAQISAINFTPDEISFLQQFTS

Kap104p, P38217 [4] = biological target: T2, Kap104p, P38217; test: ITC; conditions: chain shown with the change;; parent: 32 ± 16
Kap104p [5] = biological target: T3, Kap104p (yeast (S. cerevisiae), UniProt P38217 1-918); test: ITC
T3 chain: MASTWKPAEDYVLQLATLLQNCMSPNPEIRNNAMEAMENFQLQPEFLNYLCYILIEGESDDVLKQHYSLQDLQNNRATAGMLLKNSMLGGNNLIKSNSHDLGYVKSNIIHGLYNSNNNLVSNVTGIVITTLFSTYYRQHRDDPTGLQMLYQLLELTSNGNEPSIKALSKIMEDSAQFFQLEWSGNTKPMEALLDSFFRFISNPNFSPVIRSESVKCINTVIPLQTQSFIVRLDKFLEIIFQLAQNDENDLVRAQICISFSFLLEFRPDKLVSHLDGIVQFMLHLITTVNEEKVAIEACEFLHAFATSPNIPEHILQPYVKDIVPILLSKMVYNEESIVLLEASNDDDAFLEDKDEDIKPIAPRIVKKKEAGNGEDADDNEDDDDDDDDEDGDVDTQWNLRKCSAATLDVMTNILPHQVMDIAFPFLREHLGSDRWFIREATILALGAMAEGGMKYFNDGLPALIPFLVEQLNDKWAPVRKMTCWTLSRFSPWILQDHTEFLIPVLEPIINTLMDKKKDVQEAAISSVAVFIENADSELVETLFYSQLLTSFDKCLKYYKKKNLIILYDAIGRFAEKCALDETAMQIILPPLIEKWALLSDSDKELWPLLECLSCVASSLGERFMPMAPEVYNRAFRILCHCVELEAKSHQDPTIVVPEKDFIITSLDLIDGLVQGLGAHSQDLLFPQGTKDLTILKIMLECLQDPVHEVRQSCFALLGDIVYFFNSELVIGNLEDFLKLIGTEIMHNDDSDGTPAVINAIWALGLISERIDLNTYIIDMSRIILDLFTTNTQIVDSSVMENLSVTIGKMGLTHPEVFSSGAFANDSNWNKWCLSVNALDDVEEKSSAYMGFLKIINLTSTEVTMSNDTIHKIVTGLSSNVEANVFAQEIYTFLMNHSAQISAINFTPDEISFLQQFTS

MBP–Hrp1p NLS (from UniProt Q99383) R512A; 524RR525/AA
ddG (Kap104p [1]): 0.1 kcal/mol | ratio to parent (Kap104p [1]): 1.4 | other: TΔS (Kap104p [1]; parent: 0.09 ± 0.7): 0.06 kcal/mol | other: ΔH (Kap104p [1]; parent: -10.0 ± 0.5): -9.9 kcal/mol | dG (Kap104p [1]; parent: -10.1 ± 0.3): -9.9 kcal/mol

B1: MBP–Nab2p NLS 216KNRR219/AAAA (domain or fragment, S. cerevisiae, UniProt P32505 201-251, looked up)
chain: DNSQRFTQRGGGAVGAAAAGGRGGNRGGRNNNSTRFNPLAKALGMAGESNM
notes: Nab2p NLS, residues 201-251; source: E. coli BL21(DE3), purified (amylose resin, cation exchange)
fold decrease in affinity against wild type (Kap104p [2]): 3 fold | Kd (Kap104p, P38217 [3]): 109 nM

B2: MBP–Nab2p NLS 222RGG224 to alanines (domain or fragment, S. cerevisiae, UniProt P32505 201-251, looked up)
chain: DNSQRFTQRGGGAVGKNRRGGAAANRGGRNNNSTRFNPLAKALGMAGESNM
notes: as for B1
binding result (Kap104p [2]): binds | ddG (Kap104p, P38217 [3]): 0.3 kcal/mol | ratio to parent (Kap104p, P38217 [3]): 1.6 | Kd (Kap104p, P38217 [3]): 58 nM | other: TΔS (Kap104p, P38217 [3]): 0.06 | dG (Kap104p, P38217 [3]): -9.7 kcal/mol | other: ΔH (Kap104p, P38217 [3]): -9.6 kcal/mol

B3: MBP–Nab2p NLS 226RGGRN230 to alanines (domain or fragment, S. cerevisiae, UniProt P32505 201-251, looked up)
chain: DNSQRFTQRGGGAVGKNRRGGRGGNAAAAANNSTRFNPLAKALGMAGESNM
notes: as for B1
binding result (Kap104p [2]): binds | ddG (Kap104p, P38217 [3]): 0.3 kcal/mol | ratio to parent (Kap104p, P38217 [3]): 1.6 | Kd (Kap104p, P38217 [3]): 59 nM | other: TΔS (Kap104p, P38217 [3]): -0.2 | dG (Kap104p, P38217 [3]): -9.7 kcal/mol | other: ΔH (Kap104p, P38217 [3]): -9.9 kcal/mol

B4: MBP–Hrp1p NLS 524RR525/AA (domain or fragment, S. cerevisiae, UniProt Q99383 494-534, looked up)
chain: RDRNDRDRDYNHRSGGNHRRNGRGGRGGYNAANNGYHPYNR
notes: Hrp1p NLS, residues 494-534; source: E. coli BL21(DE3), purified (amylose resin, cation exchange)
Kd (Kap104p, P38217 [4]): 62 nM | KD,mutant/KD,wild type (Kap104p [2]): 1.7

B5: MBP–Hrp1p NLS R512, R513, R516, R519/KKKK (domain or fragment, S. cerevisiae, UniProt Q99383 494-534, looked up)
chain: RDRNDRDRDYNHRSGGNHKKNGKGGKGGYNRRNNGYHPYNR
notes: Hrp1p NLS, residues 494-534; also called quadruple mutant (arginines to lysines); source: E. coli BL21(DE3), purified (amylose resin, cation exchange)
binding result (Kap104p [2]): binds | Kd (Kap104p [5]): 36 nM

B6: MBP–Hrp1p NLS R512,R513,R516,R519/AAAA (domain or fragment, S. cerevisiae, UniProt Q99383 494-534, looked up)
chain: RDRNDRDRDYNHRSGGNHAANGAGGAGGYNRRNNGYHPYNR
notes: Hrp1p NLS, residues 494-534; also called quadruple mutant (arginines to alanines); source: E. coli BL21(DE3), purified (amylose resin, cation exchange)
fold decrease in binding against wild type (Kap104p [2]): 5 fold | Kd (Kap104p [5]): 194 nM

B7: MBP–Hrp1p NLS Y529A (domain or fragment, S. cerevisiae, UniProt Q99383 494-534, looked up)
chain: RDRNDRDRDYNHRSGGNHRRNGRGGRGGYNRRNNGAHPYNR
notes: as for B4
KD,mutant/KD,wild type (Kap104p [2]): 4 | Kd (Kap104p [5]): 143 nM

B8: MBP–Hrp1p NLS Y529L (domain or fragment, S. cerevisiae, UniProt Q99383 494-534, looked up)
chain: RDRNDRDRDYNHRSGGNHRRNGRGGRGGYNRRNNGLHPYNR
notes: as for B4
binding result (Kap104p [2]): binds | Kd (Kap104p [5]): 37 nM
